Test results as given in US20200325237A1.

Columns and labels:
[1] = target: hTfR (human transferrin receptor, source and construct not stated) (human) (UniProt P02786); assay: ELISA; ratio of the Kd on HFE-captured hTfR to the Kd on directly coated hTfR
[2] = target: hTfR (human transferrin receptor, source and construct not stated) (human) (UniProt P02786); assay: ELISA; ratio of the Kd on transferrin-captured hTfR to the Kd on directly coated hTfR
[3] = target: hTfR (human transferrin receptor, source and construct not stated) (human) (UniProt P02786); assay: ELISA, biotinylated antibody on hTfR captured by plate-coated HFE (HFE+TfR); fit: specific binding with Hill slope
[4] = target: hTfR (human transferrin receptor, source and construct not stated) (human) (UniProt P02786); assay: ELISA, biotinylated antibody on hTfR captured by plate-coated human holo-transferrin (Tf+TfR); fit: specific binding with Hill slope
[5] = target: TfR2 (transferrin receptor 2) (UniProt Q9UP52); assay: A450 plate assay on TfR2 (method not described in the text)
Chain of TfR2 (transferrin receptor 2) (Q9UP52 105-801 limits assumed): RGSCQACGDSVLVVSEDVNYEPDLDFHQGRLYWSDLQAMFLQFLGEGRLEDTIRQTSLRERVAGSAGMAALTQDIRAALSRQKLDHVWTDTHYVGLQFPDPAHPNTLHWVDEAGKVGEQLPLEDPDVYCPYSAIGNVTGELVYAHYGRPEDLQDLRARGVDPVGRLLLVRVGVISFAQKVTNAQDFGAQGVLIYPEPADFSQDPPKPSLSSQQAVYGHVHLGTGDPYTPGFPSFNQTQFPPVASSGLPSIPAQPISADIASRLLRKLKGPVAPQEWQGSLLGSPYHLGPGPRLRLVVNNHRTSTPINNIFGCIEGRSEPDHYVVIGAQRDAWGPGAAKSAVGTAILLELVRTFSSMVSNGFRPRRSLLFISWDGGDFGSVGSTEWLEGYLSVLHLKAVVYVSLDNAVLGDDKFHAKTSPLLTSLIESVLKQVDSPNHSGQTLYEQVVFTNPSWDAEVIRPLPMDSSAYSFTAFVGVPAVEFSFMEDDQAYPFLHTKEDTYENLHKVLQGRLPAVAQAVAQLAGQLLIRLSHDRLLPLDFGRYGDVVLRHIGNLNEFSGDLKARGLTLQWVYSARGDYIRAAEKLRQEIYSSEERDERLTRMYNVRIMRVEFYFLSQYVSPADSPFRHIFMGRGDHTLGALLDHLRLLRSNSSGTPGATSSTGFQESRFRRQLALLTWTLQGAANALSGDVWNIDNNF

Chain of hTfR (human transferrin receptor, source and construct not stated) (human) (P02786 89-760 limits assumed): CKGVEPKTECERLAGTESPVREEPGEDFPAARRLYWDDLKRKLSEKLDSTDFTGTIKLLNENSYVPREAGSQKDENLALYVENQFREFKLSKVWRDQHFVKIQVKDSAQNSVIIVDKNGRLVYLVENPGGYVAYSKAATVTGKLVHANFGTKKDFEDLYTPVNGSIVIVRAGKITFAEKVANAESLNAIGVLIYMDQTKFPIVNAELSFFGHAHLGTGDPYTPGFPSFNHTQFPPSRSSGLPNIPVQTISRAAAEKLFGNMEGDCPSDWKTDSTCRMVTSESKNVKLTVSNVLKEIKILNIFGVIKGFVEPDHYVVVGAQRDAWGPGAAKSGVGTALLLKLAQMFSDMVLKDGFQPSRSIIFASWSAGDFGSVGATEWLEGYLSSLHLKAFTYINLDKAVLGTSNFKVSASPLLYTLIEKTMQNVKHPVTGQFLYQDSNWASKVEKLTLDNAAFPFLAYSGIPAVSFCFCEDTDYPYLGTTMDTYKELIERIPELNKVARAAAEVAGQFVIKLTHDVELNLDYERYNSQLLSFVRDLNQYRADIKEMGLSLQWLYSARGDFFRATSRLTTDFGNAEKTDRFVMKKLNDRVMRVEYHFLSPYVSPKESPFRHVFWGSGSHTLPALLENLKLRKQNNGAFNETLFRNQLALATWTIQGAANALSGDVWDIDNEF

| Kd(HFE+TfR)/Kd(TfR) [1] | Kd(Tf+TfR)/Kd(TfR) [2] | Bmax [3] | Kd [3] | h [3] | Bmax [4] | Kd [4] | h [4] | EC50 (read off the curve) [5] | Substance |
| --- | --- | --- | --- | --- | --- | --- | --- | --- | --- |
| 688 | 51.8 | 5.7 A450 | 28.9 nM | 0.8 | 4.26 A450 | 2.18 nM | 1.12 |  | blocking AF2474 (antibody) |
|  |  |  |  |  |  |  |  | 0.3 nM | TfR2 Ab B-6 (antibody) |
